# Residue numbers refer to the chain shown, from its start.
# B1: Humanized <TWEAK> 305- antibody 27 (antibody, V domains shown)
# VH: QVQLVQSGAEVKKPGSSVKVSCKASGFDFSTYYMSWVRQAPGQGLEWMGTVYVRQGTTYYASWLNGRVTITADESTSTAYMELSSLRSEDTAVYYCARGGYNYDDAFVIWGQGTLVTVSS
# VL: DIQMTQSPSSVSASVGDRVTITCQASQNIYSNLAWYQQKPGKAPKLLIYTASYLASGVPSRFSGSGSGTDYTLTISSLQPEDFATYYCQTAYYNSRPDTVAFGGGTKVEIK
# B2: Humanized <TWEAK> 305- antibody 29 (antibody, V domains shown)
# VH: EVQLLESGGGLVQPGGSLRLSCAASGFDFSTYYMSWVRQAPGKGLEWVSTVYVRQGTTYYASWLNGRFTISRDNSKNTLDLQMNSLRAEDTAVYYCAKGGYNYDDAFVIWGQGTLVTVSS
# VL: B1 VL
# B3: Humanized <TWEAK> 305- antibody 31 (antibody, V domains shown)
# VH: B2 VH with R19T, D80Y
# VL: B1 VL with D1A, Q3R, V11F, V15T, S77C, P80S
# B4: Humanized <TWEAK> 305- antibody 28 (antibody, V domains shown)
# VH: B2 VH with R19T, D80Y
# VL: B1 VL
# B5: Humanized <TWEAK> 305- antibody 30 (antibody, V domains shown)
# VH: B2 VH with D80Y, R87T
# VL: B1 VL with Y71F
# B6: Humanized <TWEAK> 305- antibody 33 (antibody, V domains shown)
# VH: B1 VH
# VL: B1 VL with D1A, Q3R, V11F, V15T, S77C, P80S
# B7: Humanized <TWEAK> 305- antibody 34 (antibody, V domains shown)
# VH: B2 VH with D80Y
# VL: B1 VL with D1A, Q3R, V11F, V15T, S77C, P80S
# B8: Humanized <TWEAK> 305- antibody 32 (antibody, V domains shown)
# VH: B2 VH
# VL: B1 VL with S10T, V11L, D70E, Y71F, E81D
# B9: <TWEAK> 305chi (antibody, human IgG1, kappa, V domains shown)
# VH: QEQLVESGGGLVQPGGSLTLSCKASGFDFSTYYMSWVRQAPGKGLEWIGTVYVRQGTTYYASWLNGRFTISSDNAQNTVDLKMNSLTAADTATYFCAKGGYNYDDAFVIWGPGTLVTVSF
# VL: AIEMTQTPFSVSAAVGGTVTINCQASQNIYSNLAWYQQKPGQPPKLLMYTASYLASGVPSRFKGSGSRTEYTLTISGVQCADAATYYCQTAYYNSRPDTVAFGGGTEVVVKR
# Target: Biotinylated murine soluble TWEAK (amino acids 81-225 of SEQ ID NO: 69) (murine) (UniProt O54907)
# Test: SPR (Biacore), biotinylated soluble TWEAK on streptavidin chip, 25 C
row,Biacore t/2 diss. [min] 25° C. murine,Binder
1,19 min,B1
2,22 min,B2
3,19 min,B3
4,19 min,B4
5,17 min,B5
6,19 min,B6
7,22 min,B7
8,17 min,B8

# Target: Biotinylated murine soluble TWEAK (amino acids 81-225 of SEQ ID NO: 69) (murine) (UniProt O54907)
# Test: SPR (Biacore), biotinylated soluble TWEAK on streptavidin chip, 37 C
row,Biacore t/2 diss. [min] 37° C. murine,Binder
1,19 min,B1
2,21 min,B2
3,19 min,B3
4,17 min,B4
5,15 min,B5
6,15 min,B6
7,20 min,B7
8,20 min,B8

# Target: Biotinylated murine soluble TWEAK (amino acids 81-225 of SEQ ID NO: 69) (murine) (UniProt O54907)
# Test: SPR (Biacore 2000), biotinylated soluble TWEAK on streptavidin chip, antibody 100 nM as analyte, 25 C
row,t/2 diss [min] 25° C.,Binder
1,39 min,B9

# Target: Biotinylated murine soluble TWEAK (amino acids 81-225 of SEQ ID NO: 69) (murine) (UniProt O54907)
# Test: SPR (Biacore), further experiment, biotinylated soluble TWEAK on streptavidin chip, 25 C
row,t/2 diss [min] 25° C.,Binder
1,41 min,B9

# — patent publication US20150132307A1
